Test results taken from PMC12297413.

Molecular target: HgcR (D-2-hydroxyglutarate catabolic regulator), PP4494 (Pseudomonas putida KT2440)
Assay: SEC

“HgcR (D-2-hydroxyglutarate catabolic regulator), PP4494 (natural protein)” was tested, and the stoichiometry N was 2.
